# Reference: US20100015650
# T1: BRB1 tyrosine kinase substrate peptide
# T1 chain: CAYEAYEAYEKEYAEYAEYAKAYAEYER
# Molecular target: T1, BRB1 tyrosine kinase substrate peptide
protein,measurement,value
EphA3 (protein) RFCGYKSKHGADEKRLHFGNGHLKLPGLRTYVDPHTYEDPTQAVHEFAKELDATNISIDKVVGAGEFGEVCSGRLKLPSKKEISVAIKTLKVGYTEKQRRDFLGEASIMGQFDHPNIIRLEGVVTKSKPVMIVTEYMENGSLDSFLRKHDAQFTVIQLVGMLRGIASGMKYLSDMGYVHRDLAARNILINSNLVCKVSDFGLSRVLEDDPEAAYTTRGGKIPIRWTSPEAIAYRKFTSASDVWSYGIVLWEVMSYGERPYWEMSNQDVIKAVDEGYRLPPPMDCPAALYQLMLDCWQKDRNNRPKFEQIVSILDKLIRNPGSLKIITSAAARPSNLLLDQSNVDITTFRTTGDWLNGVWTAHCKEIFTGVEYSSCDTIAKISTDDMKKVGVTVVGPQKKIISSIKALETQSKNGPVPV,Signal to Noise ratio with BRB1 Peptide (TR-FRET kinase assay; kinase 0.5 nM),22.4
EphA1 (protein) RSRRAQRQRQQRQRDRATDVDREDKLWLKPYVDLQAYEDPAQGALDFTRELDPAWLMVDTVIGEGEFGEVYRGTLRLPSQDCKTVAIKTLKDTSPGGQWWNFLREATIMGQFSHPHILHLEGVVTKRKPIMIITEFMENGALDAFLREREDQLVPGQLVAMLQGIASGMNYLSNHNYVHRDLAARNILVNQNLCCKVSDFGLTRLLDDFDGTYETQGGKIPIRWTAPEAIAHRIFTTASDVWSFGIVMWEVLSFGDKPYGEMSNQEVMKSIEDGYRLPPPVDCPAPLYELMKNCWAYDRARRPHFQKLQAHLEQLLANPHSLRTIANFDPRMTLRLPSLSGSDGIPYRTVSEWLESIRMKRYILHFHSAGLDTMECVLELTAEDLTQMGITLPGHQKRILCSIQGFKD,Signal to Noise ratio with BRB1 Peptide (TR-FRET kinase assay; kinase 0.5 nM),10.8
EphA2 (protein) HRRRKNQRARQSPEDVYFSKSEQLKPLKTYVDPHTYEDPNQAVLKFTTEIHPSCVTRQKVIGAGEFGEVYKGMLKTSSGKKEVPVAIKTLKAGYTEKQRVDFLGEAGIMGQFSHHNIIRLEGVISKYKPMMIITEYMENGALDKFLREKDGEFSVLQLVGMLRGIAAGMKYLANMNYVHRDLAARNILVNSNLVCKVSDFGLSRVLEDDPEATYTTSGGKIPIRWTAPEAISYRKFTSASDVWSFGIVMWEVMTYGERPYWELSNHEVMKAINDGFRLPTPMDCPSAIYQLMMQCWQQERARRPKFADIVSILDKLIRAPDSLKTLADFDPRVSIRLPSTSGSEGVPFRTVSEWLESIKMQQYTEHFMAAGYTAIEKVVQMTNDDIKRIGVRLPGHQKRIAYSLLGLKDQVNTVGIPI,Signal to Noise ratio with BRB1 Peptide (TR-FRET kinase assay; kinase 0.25 nM),26.9
ARG (protein) GQQVGRVGEAPGLQQPQPRGIRGSSAARPSGRRRDPAGRTTETGFNIFTQHDHFASCVEDGFEGDKTGGSSPEALHRPYGCDVEPQALNEAIRWSSKENLLGATESDPNLFVALYDFVASGDNTLSITKGEKLRVLGYNQNGEWSEVRSKNGQGWVPSNYITPVNSLEKHSWYHGPVSRSAAEYLLSSLINGSFLVRESESSPGQLSISLRYEGRVYHYRINTTADGKVYVTAESRFSTLAELVHHHSTVADGLVTTLHYPAPKCNKPTVYGVSPIHDKWEMERTDITMKHKLGGGQYGEVYVGVWKKYSLTVAVKTLKEDTMEVEEFLKEAAVMKEIKHPNLVQLLGVCTLEPPFYIVTEYMPYGNLLDYLRECNREEVTAVVLLYMATQISSAMEYLEKKNFIHRDLAARNCLVGENHVVKVADFGLSRLMTGDTYTAHAGAKFPIKWTAPESLAYNTFSIKSDVWAFGVLLWEIATYGMSPYPGIDLSQVYDLLEKGYRMEQPEGCPPKVYELMRACWKWSPADRPSFAETHQAFETMFHDSSISEEVAEELGRAASSSSVVPYLPRLPILPSKTRTLKKQVENKENIEGAQDATENSASSLAPGFIRGAQASSGSPALPRKQRDKSPSSLLEDAKETCFTRDRKGGFFSSFMKKRNAPTPPKRSSSFREMENQPHKKYELTGNFSSVASLQHADGFSFTPAQQEANLVPPKCYGGSFAQRNLCNDDGGGGGGSGTAGGGWSGITGFFTPRLIKKTLGLRAGKPTASDDTSKPFPRSNSTSSMSSGLPEQDRMAMTLPRNCQRSKLQLERTVSTSSQPEENVDRANDMLPKKSEESAAPSRERPKAKLLPRGATALPLRTPSGDLAITEKDPPGVGVAGVAAAPKGKEKNGGARLGMAGVPEDGEQPGWPSPAKAAPVLPTTHNHKVPVLISPTLKHTPADVQLIGTDSQGNKFKLLSEHQVTSSGDKDRPRRVKPKCAPPPPPVMRLLQHPSICSDPTEEPTALTAGQSTSETQEGGKKAALGAVPISGKAGRPVMPPPQVPLPTSSISPAKMANGTAGTKVALRKTKQAAEKISADKISKEALLECADLLSSALTEPVPNSQLVDTGHQLLDYCSGYVDCIPQTRNKFAFREAVSKLELSLQELQVSSAAAGVPGTNPVLNNLLSCVQEISDVVQR,Signal to Noise ratio with BRB1 Peptide (TR-FRET kinase assay; kinase 0.5 nM),10.6
EphB1 (protein) SRKRAYSKEAVYSDKLQHYSTGRGSPGMKIYIDPFTYEDPNEAVREFAKEIDVSFVKIEEVIGAGEFGEVYKGRLKLPGKREIYVAIKTLKAGYSEKQRRDFLSEASIMGQFDHPNIIRLEGVVTKSRPVMIITEFMENGALDSFLRQNDGQFTVIQLVGMLRGIAAGMKYLAEMNYVHRDLAARNILVNSNLVCKVSDFGLSRYLQDDTSDPTYTSSLGGKIPVRWTAPEAIAYRKFTSASDVWSYGIVMWEVMSFGERPYWDMSNQDVINAIEQDYRLPPPMDCPAALHQLMLDCWQKDRNSRPRFAEIVNTLDKMIRNPASLKTVATITAVPSQPLLDRSIPDFTAFTTVDDWLSAIKMVQYRDSFLTAGFTSLQLVTQMTSEDLLRIGITLAGHQKKILNSIHSMRVQISQSPTAMA,Signal to Noise ratio with BRB1 Peptide (TR-FRET kinase assay; kinase 0.5 nM),29.9
EphB2 (protein) CNRRGFERADSEYTDKLQHYTSGHMTPGMKIYIDPFTYEDPNEAVREFAKEIDISCVKIEQVIGAGEFGEVCSGHLKLPGKREIFVAIKTLKSGYTEKQRRDFLSEASIMGQFDHPNVIHLEGVVTKSTPVMIITEFMENGSLDSFLRQNDGQFTVIQLVGMLRGIAAGMKYLADMNYVHRDLAARNILVNSNLVCKVSDFGLSRFLEDDTSDPTYTSALGGKIPIRWTAPEAIQYRKFTSASDVWSYGIVMWEVMSYGERPYWDMTNQDVINAIEQDYRLPPPMDCPSALHQLMLDCWQKDRNHRPKFGQIVNTLDKMIRNPNSLKAMAPLSSGINLPLLDRTIPDYTSFNTVDEWLEAIKMGQYKESFANAGFTSFDVVSQMMMEDILRVGVTLAGHQKKILNSIQVMRAQMNQIQSVEG,Signal to Noise ratio with BRB1 Peptide (TR-FRET kinase assay; kinase 0.25 nM),28.8
EphA8 (protein) KKRHCGYSKAFQDSDEEKMHYQNGQAPPPVFLPLHHPPGKLPEPQFYAEPHTYEEPGRAGRSFTREIEASRIHIEKIIGSGDSGEVCYGRLRVPGQRDVPVAIKALKAGYTERQRRDFLSEASIMGQFDHPNIIRLEGVVTRGRLAMIVTEYMENGSLDTFLRTHDGQFTIMQLVGMLRGVGAGMRYLSDLGYVHRDLAARNVLVDSNLVCKVSDFGLSRVLEDDPDAAYTTTGGKIPIRWTAPEAIAFRTFSSASDVWSFGVVMWEVLAYGERPYWNMTNRDVISSVEEGYRLPAPMGCPHALHQLMLDCWHKDRAQRPRFSQIVSVLDALIRSPESLRATATVSRCPPPAFVRSCFDLRGGSGGGGGLTVGDWLDSIRMGRYRDHFAAGGYSSLGMVLRMNAQDVRALGITLMGHQKKILGSIQTMRAQLTSTQGPRRHL,Signal to Noise ratio with BRB1 Peptide (TR-FRET kinase assay; kinase 0.25 nM),32.3
ACK (protein) GEGPLQSLTCLIGEKDLRLLEKLGDGSFGVVRRGEWDAPSGKTVSVAVKCLKPDVLSQPEAMDDFIREVNAMHSLDHRNLIRLYGVVLTPPMKMVTELAPLGSLLDRLRKHQGHFLLGTLSRYAVQVAEGMGYLESKRFIHRDLAARNLLLATRDLVKIGDFGLMRALPQNDDHYVMQEHRKVPFAWCAPESLKTRTFSHASDTWMFGVTLWEMFTYGQEPWIGLNGSQILHKIDKEGERLPRPEDCPQDIYNVMVQCWAHKPEDRPTFVALRDFLLEAQPTDMRALQDFEEPDKLHIQMNDVITVIEGRAENYWWRGQNTRTLCVGPFPRNVVTSVAGLSAQDISQPLQNSFIHTGHGDSDPRHCW,Signal to Noise Ratio with BRB1 Peptide (TR-FRET kinase assay; kinase 20 nM),17.3
EphA6 (protein) TGRCQWYIKAKMKSEEKRRNHLQNGHLRFPGIKTYIDPDTYEDPSLAVHEFAKEIDPSRIRIERVIGAGEFGEVCSGRLKTPGKREIPVAIKTLKGGHMDRQRRDFLREASIMGQFDHPNIIRLEGVVTKRSFPAIGVEAFCPSFLRAGFLNSIQAPHPVPGGGSLPPRIPAGRPVMIVVEYMENGSLDSFLRKHDGHFTVIQLVGMLRGIASGMKYLSDMGYVHRDLAARNILVNSNLVCKVSDFGLSRVLEDDPEAAYTTTGGKIPIRWTAPEAIAYRKFSSASDAWSYGIVMWEVMSYGERPYWEMSNQDVILSIEEGYRLPAPMGCPASLHQLMLHCWQKERNHRPKFTDIVSFLDKLIRNPSALHTLVEDILVMPESPGEVPEYPLFVTVGDWLDSIKMGQYKNNFVAAGFTTFDLISRMSIDDIRRIGVILIGHQRRIVSSIQTLRLHMMHIQEKGFHV,Signal to Noise ratio with BRB1 Peptide (TR-FRET kinase assay; kinase 0.5 nM),5.4
EphA5 (protein) SGSCCECGCGRASSLCAVAHPSLIWRCGYSKAKQDPEEEKMHFHNGHIKLPGVRTYIDPHTYEDPNQAVHEFAKEIEASCITIERVIGAGEFGEVCSGRLKLPGKRELPVAIKTLKVGYTEKQRRDFLGEASIMGQFDHPNIIHLEGVVTKSKPVMIVTEYMENGSLDTFLKKNDGQFTVIQLVGMLRGISAGMKYLSDMGYVHRDLAARNILINSNLVCKVSDFGLSRVLEDDPEAAYTTRGGKIPIRWTAPEAIAFRKFTSASDVWSYGIVMWEVVSYGERPYWEMTNQDVIKAVEEGYRLPSPMDCPAALYQLMLDCWQKERNSRPKFDEIVNMLDKLIRNPSSLKTLVNASCRVSNLLAEHSPLGSGAYRSVGEWLEAIKMGRYTEIFMENGYSSMDAVAQVTLEDLRRLGVTLVGHQKKIMNSLQEMKVQLVNGMVPL,Signal to Noise Ratio with BRB1 Peptide (TR-FRET kinase assay; kinase 1 nM),35.5
EphB3 (protein) CLRKQRHGSDSEYTEKLQQYIAPGMKVYIDPFTYEDPNEAVREFAKEIDVSCVKIEEVIGAGEFGEVCRGRLKQPGRREVFVAIKTLKVGYTERQRRDFLSEASIMGQFDHPNIIRLEGVVTKSRPVMILTEFMENCALDSFLRLNDGQFTVIQLVGMLRGIAAGMKYLSEMNYVHRDLAARNILVNSNLVCKVSDFGLSRFLEDDPSDPTYTSSLGGKIPIRWTAPEAIAYRKFTSASDVWSYGIVMWEVMSYGERPYWDMSNQDVINAVEQDYRLPPPMDCPTALHQLMLDCWVRDRNLRPKFSQIVNTLDKLIRNAASLKVIASAQSGMSQPLLDRTVPDYTTFTTVGDWLDAIKMGRYKESFVSAGFASFDLVAQMTAEDLLRIGVTLAGHQKKILSSIQDMRLQMNQTLPVQV,Signal to Noise ratio with BRB1 Peptide (TR-FRET kinase assay; kinase 0.1 nM),24.7
